According to article PMC8440666, “Allosteric modulation of LRRC8 channels by targeting their cytoplasmic domains” (Nature Communications, 2021):
“And” between values parts separate entries of the source, which are not always exact repeats. Equal values may be shown once.

T1: full-length murine LRRC8A (homomeric hexameric channel) (mouse), Q80WG5
T1 chain: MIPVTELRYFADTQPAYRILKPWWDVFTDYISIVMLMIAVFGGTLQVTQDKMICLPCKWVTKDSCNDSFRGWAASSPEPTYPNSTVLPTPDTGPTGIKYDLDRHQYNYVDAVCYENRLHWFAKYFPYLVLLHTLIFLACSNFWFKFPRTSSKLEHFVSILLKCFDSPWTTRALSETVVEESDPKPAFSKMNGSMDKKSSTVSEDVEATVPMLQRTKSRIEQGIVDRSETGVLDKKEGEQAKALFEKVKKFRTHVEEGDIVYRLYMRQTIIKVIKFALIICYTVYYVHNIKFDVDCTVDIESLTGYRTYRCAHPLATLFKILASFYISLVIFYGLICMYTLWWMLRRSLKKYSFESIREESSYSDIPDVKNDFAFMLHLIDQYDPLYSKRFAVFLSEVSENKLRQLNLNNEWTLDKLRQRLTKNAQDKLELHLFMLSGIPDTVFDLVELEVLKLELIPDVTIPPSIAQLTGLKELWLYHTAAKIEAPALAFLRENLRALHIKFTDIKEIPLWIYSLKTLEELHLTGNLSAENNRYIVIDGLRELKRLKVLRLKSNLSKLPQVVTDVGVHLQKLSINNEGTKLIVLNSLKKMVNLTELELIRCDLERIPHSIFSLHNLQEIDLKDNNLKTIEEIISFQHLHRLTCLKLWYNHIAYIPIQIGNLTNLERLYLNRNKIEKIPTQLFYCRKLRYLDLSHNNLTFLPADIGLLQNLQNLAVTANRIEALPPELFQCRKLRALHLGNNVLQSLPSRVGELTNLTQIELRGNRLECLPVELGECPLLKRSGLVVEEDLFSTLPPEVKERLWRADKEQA

B1: sybody Sb1^LRRC8A (VHH)
VHH: QVQLVESGGGLVQAGGSLRLSCAASGFPVGRHFMYWYRQAPGKEREWVAAIYSYGEYTEYADSVKGRFTISRDNAKNTVYLQMNSLKPEDTAVYYCYVYVGNEYWGQGTQVTVSA
notes: residues 1-116 modelled; concave library; Synthetic nanobody selected by ribosome and phage display against full-length LRRC8A; N-terminal pelB leader for periplasmic expression; For electrophysiology also expressed in HEK293 cells with C-terminal Venus-myc-SBP; source: E. coli MC1061, periplasmic expression, purified (Ni-NTA, SEC on Superdex 75)
B2: sybody Sb2^LRRC8A (VHH)
VHH: QVQLVESGGGLVQAGGSLRLSCAASGFPVYQAWMWWYRQAPGKEREWVAAIESEGQYTWYADSVKGRFTISRDNAKNTVYLQMNSLKPEDTAVYYCNVKDTGHTTNQYDYWGQGTQVTVSA
notes: loop library; Synthetic nanobody selected by ribosome and phage display against full-length LRRC8A; For electrophysiology expressed in HEK293 cells with C-terminal Venus-myc-SBP; source: E. coli MC1061, periplasmic expression, purified (Ni-NTA, SEC on Superdex 75)
B3: sybody Sb4^LRRC8A (VHH)
VHH: QVQLVESGGGSVQAGGSLRLSCAASGYIYQIEYLGWFRQAPGKEREGVAALATWNGQTYYADSVKGRFTVSLDNAKNTVYLQMNSLKPEDTALYYCAAAYEGDTSPLYYEEYGYWGQGTQVTVSA
notes: convex library; Synthetic nanobody selected by ribosome and phage display against full-length LRRC8A; For electrophysiology expressed in HEK293 cells with C-terminal Venus-myc-SBP; source: E. coli MC1061, periplasmic expression, purified (Ni-NTA, SEC on Superdex 75)
B4: sybody Sb5^LRRC8A (VHH)
VHH: QVQLVESGGGLVQAGGSLRLSCAASGFPVAQEIMTWYRQAPGKEREWVAAISSIGDTTAYADSVKGRFTISRDNAKNTVYLQMNSLKPEDTAVYYCAVNVGFTYKGQGTQVTVSA
notes: concave library; Synthetic nanobody selected by ribosome and phage display against full-length LRRC8A; For electrophysiology expressed in HEK293 cells with C-terminal Venus-myc-SBP; source: E. coli MC1061, periplasmic expression, purified (Ni-NTA, SEC on Superdex 75)
B5: sybody Sb3^LRRC8A (VHH)
VHH: QVQLVESGGGLVQAGGSLRLSCAASGFPVMNAGMYWYRQAPGKEREWVAAIESEGTSTYYADSVKGRFTISRDNAKNTVYLQMNSLKPEDTAVYYCNVKDVGDNHFPYDYWGQGTQVTVSA
notes: residues 1-120 modelled; loop library; Synthetic nanobody selected by ribosome and phage display against full-length LRRC8A; For electrophysiology expressed in HEK293 cells with C-terminal Venus-myc-SBP; source: E. coli MC1061, periplasmic expression, purified (Ni-NTA, SEC on Superdex 75)
B6: full-length murine LRRC8A (homomeric hexameric channel), Q80WG5 1-810 (natural protein)
chain: T1 chain

Key:
[1] = target: T2, full-length murine LRRC8A (homomeric hexameric channel) (mouse, UniProt Q80WG5); assay: cryo-EM structure; sybody added to purified full-length LRRC8A at a molar ratio sybody/LRRC8A monomer of 1.25-1.5 (0.5 for Sb4_(0.5)), no further chromatography; C3 symmetry imposed; conditions: both partners purified
T2 construct: full-length mouse LRRC8A (NP_808393.1); For patch clamp it was expressed from a vector without mCherry in LRRC8-/- HEK293 cells; also called homomeric LRRC8A channel; not shown: mCherry, C-terminal, cleaved; myc, C-terminal, cleaved; SBP, C-terminal, cleaved

[2] = target: T3, LRR domain of LRRC8A (soluble cytoplasmic leucine-rich repeat domain of mouse LRRC8A) (Mus musculus, UniProt Q80WG5, chemically biotinylated with amine-reactive NHS-PEG4-Biotin for ELISA and SPR); assay: SPR; Biacore T100; chemically biotinylated LRR domain immobilised on streptavidin chip (~100 RU), sybody as analyte; 20 °C, 10 mM HEPES pH 7.4, 150 mM NaCl, 0.5 mM EDTA, 0.05% Tween 20; multi-cycle kinetics (Sb1, Sb3, Sb4, Sb5) or single-cycle kinetics (Sb2); 1:1 binding model; conditions: both partners purified
T3 construct: LRR domain of mouse LRRC8A, residues 398-810 of NP_808393.1; Used without biotin in SEC and biotinylated in SPR and ELISA; also called LRRC8A-cytosolic domain (LRR); LRRC8A-LRR domain; not shown: SBP, N-terminal, cleaved; myc, N-terminal, cleaved

[3] = target: T2, full-length murine LRRC8A (homomeric …); assay: cell-based or functional assay
[4] = target: T1, full-length murine LRRC8A (homomeric …); assay: cryo-EM structure; sybody added to purified full-length LRRC8A at a molar ratio sybody/LRRC8A monomer of 1.25-1.5 (0.5 for Sb4_(0.5)), no further chromatography; C3 symmetry imposed; conditions: remark: other sources report otherwise

| Binder | stoichiometry N [1] | Kd [2] | koff [2] | current density of endogenous VRAC in HEK293 cells, whole-cell patch clamp, 125 mM intracellular salt, 1 µM Sb1 in the pipette solution [3] [fold reduction] | endogenous VRAC current density in HEK293 cells expressing Sb4 compared to non-transfected cells, whole-cell patch clamp, 125 mM (about 50% increase) and 175 mM intracellular salt [3] [fold increase] | endogenous VRAC current density in HEK293 cells expressing Sb5 compared to non-transfected cells, whole-cell patch clamp, 125 mM (about 50% increase) and 175 mM intracellular salt [3] [fold increase] | stoichiometry N [4] [subunits] |
| --- | --- | --- | --- | --- | --- | --- | --- |
| B1 | 6 sybodies per hexameric channel | 24 nM and 22 nM | 0.03 s⁻¹ and 0.037 s⁻¹ | ~4 | – | – | – |
| B2 | 6 sybodies per hexameric channel | 35 nM and 60 nM | 0.003 s⁻¹ | – | – | – | – |
| B3 | – | 27 nM and 17 nM | 0.064 s⁻¹ | – | ~5 | – | – |
| B4 | – | 175 nM and 170 nM | 0.199 s⁻¹ and 0.242 s⁻¹ | – | – | ~2.3 | – |
| B5 | 6 sybodies per hexameric channel | 800 nM and 913 nM | 0.104 s⁻¹ and 0.113 s⁻¹ | – | – | – | – |
| B6 | – | – | – | – | – | – | 6 |
